Experimental data taken from the nanobody polyreactivity screen of Harvey et al. (2022).

Assay: yeast display, Sf9 membrane polyspecificity reagent, FACS + sequencing; frameworks hold sequencing errors
Outline: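 Sorting gates, low and high (top ~1%), were placed on anti-HA fluorescence to track expression and on streptavidin fluorescence to track reagent binding. A clone's polyreactivity label is taken from the gate it came out of. The reagent was 10% biotinylated, detergent-solubilized Sf9 membrane, applied for 1 hour at 4 °C to galactose-induced yeast display cells.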

Row | Sequence | polyreactivity (PSR sort gate)
1 | QVQLVESGGGLVQAGGSLRLSCAASGITLYAYVMGWYRQAPGKERELVAAIRSGGSTYYADSVKGRFTISRDNAKNTVYLQKNSLKPEDTAVYYCAAYYPLWGWGYDYWGQGTQVTVSS | high polyreactivity
2 | QVQLVESRVGLVQAGGSLRLSCAASGITLYYYALGWYRHAPGKEREFVAAITWRGTTTYYADSVKGPFTISRDNAKNTVYLQMNSLKPEDTALYYCAAEHEQRVADYYYWGQGTQVTVSS | low polyreactivity
3 | QVQLVESGGGLVQAGGSLRLSCAASGLIFPYYTMGWYRQAPGKERELVAAISWRGGGTFYADSVKGRFTISRDNAKNTVYLQMNSLNPEDTAVYYCAAQLYPYRWYYWGQGTQVTVSS | high polyreactivity
4 | QVQLVESGGGLVQAGGSLRLSCAASGNTFYLYAMGWYRQAPGKERELVASITGGTRTNYADSVKGRFTISRDNAKNTVYLQMNSLKPEDTAVYYCAKTYPRTVGKYLSRGGYYYWGQGTQVTVSS | high polyreactivity
5 | QVQLVESGGGLVQAGGSLRLSCAASRSTFRYYTMGWYRQSPGKERELVARISRSGGSTYYADSVKGRFTISRDNAKNTVYLQMNSLKPEDTSVYYCAALYYVKPGQRYDYWGQGTQVTVSS | high polyreactivity
6 | QVQLVESGGGLVQAGGSLRLSCAASGRIFNANAMGWYRHAPGKERELVAAISSSGGSTYYADSVKGRFTISRDNAKNTVYLQMNSLNPEDTAVYYCNADWGWRYSSDFDYWGQGTQVTVSS | low polyreactivity
7 | QVQLVESGGGLVQAGGSLRLSCAASGSTFYVNTMGWYRQAPGKERELVAAITATGASTYYADSVKGRFTISRDNAKNTVYLQMNSLKPEDTAVYYCNVRLRIRSGYWGQGTQVTVSS | high polyreactivity
8 | QDQLVESGGGLVQAGGSLRLTCAASGFIFYHYAMGWYRQAPGKERDLVAAINWSGGSTYYADSVKGRFTISRDNAKKTDYLQMNSLKPEDTAVYYCAAYSTAWYWPGKFDYWGQGTQVTVSS | high polyreactivity
9 | QVQLVESGGGLDLAGGSLRLSCAASGRTFLYYAMGWYRQAPWKDREFVASIRRGGGSTYYADSVKGRFTFSRDNAKHTVYLQMHSLKPVDTAVYYCAAQPYTLSLFRLNYDYWGQGTQVTVSS | low polyreactivity
10 | QVQLVESGGGLVQAGGSLRLSCAASGFIFWWYTMGWYRQAPGKETELVAAITGSGGSTYYADSVKGRFTISRDNAKNTVYLQMNSLKPEDTAVYYCNAVSAYKWQYDYWGQGTQVTVSS | high polyreactivity
11 | QVQLEESGGGLVQAGGRLRLSSAASGRTFMPNGMGWYRQAPGKERELVAAISWRGGSTYYADSVKGRFTISRDNAKNTVYLQMNSLKPEDTAVYYCNARVSRQYDYWGQGTEVTVSS | low polyreactivity
12 | QVQLVESGGGLVQAGGSLRLSCAASGRIFRLYAMGWYRQAPGKERELVATITSGGTYYADSVKGRFTISRDNAKNTVYLQMNSLKPEDTAVYYFAAVVYPGYVGSQEYDYWGQGTQVTVSS | low polyreactivity
13 | QVQLVESGGGLVQAGGSLRLSCAASGGIFPAYAMGWYRQAPGKERELVAAITSSGASTYADSVKGRFTISRDNAKNTVYLQMNSLKPEDTAVYYCNADDTTVILEMDYWGQGTQVTVSS | low polyreactivity
14 | QVQLVESGGGLVQAGGSLRLSCASSGIILYYYAMGWYRQAPGKERELVAAIDSGDSTDYADSVKGRFTISRDNAKNTVYLQMNSLKPEDTAVYYCAADSPVDEYYHWGQGTQVTVSS | low polyreactivity
15 | QFQLVESGGGLVQAGGSLRLSCAASGSIFGYYDMGWYRQAPGKERELVAAISWSGDTTYYADSVKGRFTISRDNAKNTVDLQMNILTPEDTAVYYCSAEFYDWLGGMGYWGQGTQVNVSS | low polyreactivity
16 | QVQLVESGGGLVQAGGSLRLSCAASGSTCVYYPMGWYRQAPGKERELVAAIRGRDGNTYYADSVKGRFTISRDNAQNTVYLQMNSLKPEDSAVYSSAATRRNQLYGVAYRYDYWGQGTQVTVSS | high polyreactivity
17 | QVQLVESGGGLVQAGGSLRLSCAASGITFLNYAMGWYRQAPGKERELVAAISWSRGRTYYADSVKGRFTISRDNAKNTGYLQMNSLKPEDTAVYDCAADRGVNSYGYWGQGTQVTVSS | high polyreactivity
18 | QVQLVESGGGLVQAGGSLRLSCAASGLTSDENAMGWYRQAPGKERELVAVISNSGDSTYYADSVKGRFTISRDTAKNTVYLQLNSLKPEDTAVYNCAADGLSKFDYWGQGTQVTVSS | low polyreactivity
19 | QVQLVESGGGLVQAGGSLRLSCASSGFTFDINAMGWYRQAPGKERELVAVITWNDGSTYYADSVKGRFTISRDNAKNTVYLQMNSLKPEDTAVYYCAAEYADSWSAFDWNYYYWGQGTQVTVSS | high polyreactivity
20 | QVQLVESGGGLVQAGGSLRLSCAASGTIFGYYAMGWDREAPGKERELVAAITVSGSRTYYADSVKGRFTISRDKAKNTVYLQMNCLKPEATAVYYCAARYVSRYWAGRYPTRQRDSWGQGTQVTVSS | high polyreactivity
21 | KVQLVESGGGLVQAGGSLRLSCAASGGTFSYNAMGWYRQAPGKERELVAAISWSGTRTYYADSVKGRFTISRDNAKNTVYLQMNSLKPEDTAVYYCNKPPPNRGRYDYWGQCTQVTVSS | low polyreactivity
22 | QVQLVESGGGLVQAGGSLRLSCAASGFTFSYYAMGWYRQAPGKERELVAAISWNGGSTYYADSVKGRFTISRDNAKNTVYLQMNSLKPEDTAVNYCAADSLLYYYDTGYEYWGQGTQVTVSS | high polyreactivity

Row | Sequence | polyreactivity (PSR sort gate)
23 | QVQLVESGGGLVQAGGTLRLSCAASGSILTPNAMGWSRQAPGKERELVAAISDNAGSTYYADSVKGRFTISRDNAKNTVYLQMNSLKPEDTAVYYCAAEYWEYNLVYLVYYYSMDYWGQGTQVTVSS | high polyreactivity
24 | QVQLVESGGGLVQAGGSLRLSCPASGSTFWYYAMGWYRQAPGKERELVAAITRGGSTNYADSVKGRFTISRDNAKNTVYLQMNSLKPEDTAVYYCAKDGPQYRYYYWGQGTQVTVSS | high polyreactivity
25 | QVQLVESGGGLVQAGGSLRLSCAASGYTFLKYAMGWYRQAPGKERELVAAISGRGGRTYYADSVKGRFTISRDNAKNTVYLQMNSLKPEDTAVYYCNAVRNSPDDYWGQGTQVTVSS | high polyreactivity
26 | QVQLVESGGGLVQGGGSLRLSCAASGSTIPSYAMGCYRQAPGKERELVASITYSDGTTRYADSVKGRFTISRDHAKNPVYLQMNSLIPEDTELYSCNAVYYREGMDYWGQGTQVTVSS | low polyreactivity
27 | QVQLVESGGGLVQAGGSLRLSCAASGSIFGGYGLGWYRQAPGKERELVAASTSGSSTYYADSVKGRFTISRDNAKNTVYFPMNSLKPEDTAVSYFAARPFPHSAYEGDYWGRGTQVTVSS | low polyreactivity
28 | QVQLVESGGGLVQAGGSLRLSCAASGRTLDRYAMGWYSPAPGKERELVAAIRWSTGSTYYADSVKGRFTISRDNAKNTVYLQMNSLKPEDTAVYYCAAELSYWWYFAMDYWGQGTQVTVSS | high polyreactivity
29 | QVQLVESGAGLVQAGVSLRLSCAASGRIFVVNAMGRYRHAPGKERELVAAISRGGSTNYADSVKGPFTISRDNAKNTVYLQMNSLKPEDTAVYYCNADGSSYWYPVPLDGGDYWGQGTLVTVSS | low polyreactivity
30 | QVQLVESWGGLVQAGGSLRLSCAASGRTIEQYAMGWYRQAPGKERELVAAISGSGGSTFYADSVKGRFTISRDNAKNTVYLQMNSLKPEDTAVYYCNAPGDGYLYDHTYDYWGQGTQVTVSS | low polyreactivity
31 | QVQHVESGGGLVQAGGSLLLSCAASGSIFGGNAKGWYRQAPGKERELVAVITSRGGSTYYADSVKGRFTISRDNAKNTVSLQMNSLKPEDTAVYYCNKRYLNRREGTDDYWGQGTQVTVSS | high polyreactivity
32 | QVQLVESGGGLVQAGGSLRLSCAASGSTFYYYAMGWYRQAPGKERELVAAIDWSGESTYYADSVKGRFTISRDNAKNTVYLQMNSLKPEDTAVYYCAADLGYPWGYVLFYKQSFSYYYWGQGTQVTVSS | low polyreactivity
33 | QVQLVESGGGLVQAGGSLRLSCASSGLTFYKNAMGWYRQAPGKERELVAVISSSGGSTYYADSVKGRFTISRDNAKNTVYLQMNSLKPEDTAVYYGGRDLYTEYRWGRLTYDYWGHGTQVTVSS | low polyreactivity
34 | QVQLVESGGGLVQAGGSLRLSCAASGFIFYLYTMGWYRQAPGTEMEVVAAITQSGTRTYYADSVKGRFTISRDNAKNTVYLQMNSLKPVDTAVYYCAAEWGSSYRWGMDYWGQGTQVTVSS | high polyreactivity
35 | QVQLVESGGGLVKAGGSLRLSCAASGRTFVYNAMGWYRQAPGKERELVADIDGGGDRTYYADSVKGRFTISRDNAKNKVFLQMNSLKPEDTAVYYCARDPGDTYYYSYPEGDYWGQGTQVTVSS | low polyreactivity
36 | QVQLVESGGGLVQAGGSLRLSCAASGRTFLYYAMGWESQGPGKERELVAAITGRGGSTYSADSVKGRFTISRDNAKNTVYLQMNILKPEDTAVYYCAARDNWIRRDGYWGQGTQVTVSS | high polyreactivity
37 | QVQLVESGGGLVQAGGSLRLSCAASGITLTVYTMGWYRQAPGKERKLVAAITYGGTSTYYADSVKGRFTISRDNAKNTVYLQMNSLKPEDTAVYYCAARARIYNYWGQGTQVTVSS | high polyreactivity
38 | QVQLVESGGGLVQAGGSLRLSCAASGRILSGTPMGLYRQAPRKERELVAAITNAGITKYADSVKGRFTISRDNAKNTVYLQMNSLKPEDTAVYYCATDRYAYKLYDYWGQGTKVTVSS | low polyreactivity
39 | QVQLVESGGGLVQAGGSLRLSCAASGRIFDYYAMGWYRQAPGKERELVASISRSGGSTYYADSVKGRFTISRDNAKNTVYLQMNSLKPEDTAVYYCAARRGYYYGRVGYWGQGTQVTVSS | high polyreactivity
40 | QVQLVESGGGLVQAGGSLRLSCAASGRIFRWYAMGWYRQAPGKEREIVAAITSSGGSTYYADSVKGRFTISRDNAKNTVYLQMNSLKPEDTAFYYCAALLYLGGSYSRGYYWGQGTQVTVSS | high polyreactivity
41 | QVQLEESGGGLVQAGGSLRLSCAASGSTSTYNAMGWYRQAPGKERELVAAITESGGSTYYADSVKGRFTISRDNAKNTVYLQMNSLKPEDTAVYYCNTGYGLVDFLYGYYYWGQGTQVTVSS | low polyreactivity
42 | QVQLVESGGGLVQAGGSLRLSCAASGSIFPKYAMGWYRQAPGKERELVAAITSSGGRTYYADSVKGRFTISRDNAKNTVYLQMNSLKPEDTAVYYCAARSPRASGNSDYWGQGTQVTVSS | high polyreactivity
43 | HVQLVESGGGLVQAGGSLRLSCAASGSTFNRYAMGWYRQAPGKERELVAAITERGGSTYYADSVKGRFTISRDNAKNTVYLQMNRLIPEDTAVYYCAARSKYYRSTPFVSDYWGQGTQVTVSS | high polyreactivity
